Experimental data as given in article doi:10.1101/2024.02.14.580117.
Read-outs that look alike come from different tables or passages of the source.

Columns and labels:
Assay in all cases: EMSA
[1] = target: T1, Argonaute 2 (AGO2), loaded with miR-34a (Homo sapiens, UniProt Q9UKV8 1-859)
[2] = target: T1, Argonaute 2 (AGO2), loaded with miR-34a; remark: listed apart in the source
[3] = target: T1, Argonaute 2 (AGO2), loaded with miR-34a; remark: listed apart in the source
[4] = target: T1, Argonaute 2 (AGO2), loaded with miR-34a; remark: listed apart in the source
[5] = target: T1, Argonaute 2 (AGO2), loaded with miR-34a; remark: listed apart in the source

T1 sequence (Q9UKV8 whole entry): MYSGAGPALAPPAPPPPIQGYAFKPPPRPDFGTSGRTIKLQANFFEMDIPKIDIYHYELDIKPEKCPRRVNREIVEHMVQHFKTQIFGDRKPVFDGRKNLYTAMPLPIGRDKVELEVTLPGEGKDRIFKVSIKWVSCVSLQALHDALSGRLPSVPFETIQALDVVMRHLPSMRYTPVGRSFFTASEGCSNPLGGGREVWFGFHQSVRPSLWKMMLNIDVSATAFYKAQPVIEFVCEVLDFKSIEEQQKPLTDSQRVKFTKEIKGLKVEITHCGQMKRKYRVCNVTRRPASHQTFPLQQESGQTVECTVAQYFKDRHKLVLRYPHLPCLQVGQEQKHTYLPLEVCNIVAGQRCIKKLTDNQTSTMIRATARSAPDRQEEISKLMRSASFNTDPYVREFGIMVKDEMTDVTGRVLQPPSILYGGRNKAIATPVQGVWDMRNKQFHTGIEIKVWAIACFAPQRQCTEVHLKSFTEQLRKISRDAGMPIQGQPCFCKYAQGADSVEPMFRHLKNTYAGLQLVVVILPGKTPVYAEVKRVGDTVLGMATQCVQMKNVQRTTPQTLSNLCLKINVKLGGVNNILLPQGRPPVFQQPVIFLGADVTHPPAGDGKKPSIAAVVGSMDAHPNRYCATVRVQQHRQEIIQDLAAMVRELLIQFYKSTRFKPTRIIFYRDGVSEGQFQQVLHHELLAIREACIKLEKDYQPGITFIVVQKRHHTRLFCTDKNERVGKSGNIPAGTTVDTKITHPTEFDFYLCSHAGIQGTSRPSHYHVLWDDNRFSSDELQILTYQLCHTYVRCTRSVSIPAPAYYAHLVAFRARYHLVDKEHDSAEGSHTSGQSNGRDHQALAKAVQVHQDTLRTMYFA

B1: miR-34a guide / MTA2 target (dsRNA)
RNA 1: UGGCAGUGUCUUAGCUGGUUGU
RNA 2: GGUACCUGGUUGGGGGAGGGGGGCGUGCACUGCCA
modifications: 5' phosphate on guide
Question: For B1, which Kd [1] is on record?
Answer: Its Kd is 66.1 ± 11.2 nM.

B2: miR-34a guide / DLL1 target (dsRNA)
RNA 1: UGGCAGUGUCUUAGCUGGUUGU
RNA 2: CCGGCCGCCUGCGGCACUGCCU
modifications: 5' phosphate on guide
Question: With B2 as the binder, how does the Kd [1] read?
Answer: The Kd was 69.2 ± 14.1 nM.

B3: miR-34a guide / PNUTS target (dsRNA)
RNA 1: UGGCAGUGUCUUAGCUGGUUGU
RNA 2: AAAGUCACACUACAUGCACUGCCU
modifications: 5' phosphate on guide
Question: Which Kd [1] does the source give for B3 here?
Answer: The Kd was 14.5 ± 2.9 nM.

B4: miR-34a guide / SIRT1 target (dsRNA)
RNA 1: UGGCAGUGUCUUAGCUGGUUGU
RNA 2: ACACCCAGCUAGGACCAUUACUGCCA
modifications: 5' phosphate on guide
Question: Which Kd [2] does the source give for B4 here?
Answer: Its Kd is 2.68 ± 0.3 nM.

B5: miR-34a guide / WNT1 target (dsRNA)
RNA 1: UGGCAGUGUCUUAGCUGGUUGU
RNA 2: GGAGACCCCUUGUUGCACUGCCC
modifications: 5' phosphate on guide
Question: Does B5 bind [3]?
Answer: Result: binds

B6: miR-34a guide / NOTCH1 target (dsRNA)
RNA 1: UGGCAGUGUCUUAGCUGGUUGU
RNA 2: ACUUUUAUUUUACACAGAAACACUGCCU
modifications: 5' phosphate on guide
Question: Does B6 bind [3]?
Answer: Result: binds

B7: miR-34a guide / HNF4a target (dsRNA)
RNA 1: UGGCAGUGUCUUAGCUGGUUGU
RNA 2: AGGGCCACAUCCCACUGCCA
modifications: 5' phosphate on guide
Question: How did the Kd [1] turn out when B7 was run?
Answer: Its Kd is 38.9 nM.

B8: miR-34a guide / NOTCH2 target (dsRNA)
RNA 1: UGGCAGUGUCUUAGCUGGUUGU
RNA 2: UCAGUGAUGAGGAGGACAACACUGCCU
modifications: 5' phosphate on guide
Question: Which Kd [4] does the source give for B8 here?
Answer: Its Kd is 496 ± 129 nM.

B9: miR-34a guide / SCRseed target (dsRNA)
RNA 1: UGGCAGUGUCUUAGCUGGUUGU
RNA 2: ACAACCAGCUAUCACACACGGA
modifications: 5' phosphate on guide
Question: Does B9 bind [5]?
Answer: Result: binds

B10: miR-34a guide / PERFECT target (dsRNA)
RNA 1: UGGCAGUGUCUUAGCUGGUUGU
RNA 2: ACAACCAGCUAAGACACUGCCA
modifications: 5' phosphate on guide
Question: For B10, which Kd [1] is on record?
Answer: The Kd was 1.03 ± 0.46 nM.

B11: miR-34a guide / BCL2 target (dsRNA)
RNA 1: UGGCAGUGUCUUAGCUGGUUGU
RNA 2: UCGAAUCAGCUAUUUACUGCCA
modifications: 5' phosphate on guide
Question: B11 was tested. Which Kd [1] did it give?
Answer: The Kd was 8.92 nM.

B12: miR-34a guide / CDK6 target (dsRNA)
RNA 1: UGGCAGUGUCUUAGCUGGUUGU
RNA 2: UACUUUCUGCCACACACUGCCU
modifications: 5' phosphate on guide
Question: How did the Kd [1] turn out when B12 was run?
Answer: The Kd was 26.9 ± 1.4 nM.
